Assay results published in US20250207166.

Legend:
[1] = target: T1, chalcone synthase-like B (ChSB)
T1 chain: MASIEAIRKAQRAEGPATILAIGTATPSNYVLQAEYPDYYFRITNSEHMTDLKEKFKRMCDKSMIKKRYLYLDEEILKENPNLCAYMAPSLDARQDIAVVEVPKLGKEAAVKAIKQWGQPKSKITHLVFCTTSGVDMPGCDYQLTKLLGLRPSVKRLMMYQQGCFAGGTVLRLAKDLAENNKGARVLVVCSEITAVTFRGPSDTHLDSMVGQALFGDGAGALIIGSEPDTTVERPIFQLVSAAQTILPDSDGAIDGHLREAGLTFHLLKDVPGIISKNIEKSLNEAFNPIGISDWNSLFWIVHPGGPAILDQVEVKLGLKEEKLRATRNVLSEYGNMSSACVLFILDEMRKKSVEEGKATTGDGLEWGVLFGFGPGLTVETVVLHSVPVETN

[2] = target: T2, chalcone synthase-like C (ChSC)
T2 chain: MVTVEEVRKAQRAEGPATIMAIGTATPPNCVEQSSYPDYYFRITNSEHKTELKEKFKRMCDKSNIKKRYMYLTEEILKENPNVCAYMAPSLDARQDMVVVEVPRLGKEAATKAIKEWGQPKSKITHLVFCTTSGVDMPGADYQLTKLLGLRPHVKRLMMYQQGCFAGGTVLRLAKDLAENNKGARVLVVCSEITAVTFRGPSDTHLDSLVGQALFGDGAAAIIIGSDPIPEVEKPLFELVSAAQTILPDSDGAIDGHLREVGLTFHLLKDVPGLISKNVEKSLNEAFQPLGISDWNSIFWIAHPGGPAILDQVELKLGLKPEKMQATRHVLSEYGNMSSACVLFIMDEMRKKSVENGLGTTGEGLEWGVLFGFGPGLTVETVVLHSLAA

[3] = target: T3, chalcone synthase-like A (ChSA)
T3 chain: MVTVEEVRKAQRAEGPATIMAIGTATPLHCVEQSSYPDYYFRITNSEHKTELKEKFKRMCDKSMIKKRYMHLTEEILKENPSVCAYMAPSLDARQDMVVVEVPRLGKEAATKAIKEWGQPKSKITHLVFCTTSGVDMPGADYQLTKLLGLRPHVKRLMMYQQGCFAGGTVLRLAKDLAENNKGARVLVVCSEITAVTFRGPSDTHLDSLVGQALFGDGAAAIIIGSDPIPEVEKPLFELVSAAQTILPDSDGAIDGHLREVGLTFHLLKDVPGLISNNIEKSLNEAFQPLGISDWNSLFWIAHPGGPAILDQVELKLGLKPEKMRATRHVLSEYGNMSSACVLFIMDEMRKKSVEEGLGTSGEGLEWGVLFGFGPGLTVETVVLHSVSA

[4] = target: T4, chalcone synthase-like F (ChSF)
T4 chain: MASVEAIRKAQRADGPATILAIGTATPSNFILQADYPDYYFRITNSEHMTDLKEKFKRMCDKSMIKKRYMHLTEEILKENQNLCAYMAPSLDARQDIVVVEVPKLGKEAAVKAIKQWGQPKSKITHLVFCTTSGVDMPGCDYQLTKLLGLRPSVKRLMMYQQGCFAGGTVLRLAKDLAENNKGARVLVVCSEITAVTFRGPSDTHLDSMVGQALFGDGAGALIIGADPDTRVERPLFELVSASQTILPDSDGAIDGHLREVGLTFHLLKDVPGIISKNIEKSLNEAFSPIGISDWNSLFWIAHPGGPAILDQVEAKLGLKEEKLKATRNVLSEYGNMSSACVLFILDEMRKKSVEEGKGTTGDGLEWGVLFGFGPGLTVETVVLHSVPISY

[5] = target: T5, chalcone synthase-like D (ChSD)
T5 chain: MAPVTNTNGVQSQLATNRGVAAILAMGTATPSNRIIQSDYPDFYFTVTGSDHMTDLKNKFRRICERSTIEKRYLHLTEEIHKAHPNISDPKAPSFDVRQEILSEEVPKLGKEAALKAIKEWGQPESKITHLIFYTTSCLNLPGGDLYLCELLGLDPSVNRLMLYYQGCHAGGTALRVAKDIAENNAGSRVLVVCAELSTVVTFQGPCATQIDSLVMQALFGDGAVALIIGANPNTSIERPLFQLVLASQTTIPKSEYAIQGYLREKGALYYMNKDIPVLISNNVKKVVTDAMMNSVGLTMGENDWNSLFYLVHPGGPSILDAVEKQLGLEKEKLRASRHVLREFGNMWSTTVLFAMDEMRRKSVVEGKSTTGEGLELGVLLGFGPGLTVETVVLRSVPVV

B1: chalcone synthase-like E (ChSE) (protein)
chain: MGSLDQDFQPNQVPTIRADAATVLAIGTANPPNCIPQAEFADFYFRVTNSNHMTDLKKKFKRICEKSSIKKRYVHLTEKILNENPNICTFKEPSLTARQNIATEEIPKLGKEAALKAIEEWGRPKSEITHLVFCTIGGAEMPSADYQLVHLLGLNPSVKRFMLYYQGCFAGGSVLRLAKDLAENNVGARVLVVCAEVSIPYFHGPSEAHFDSNLIWQMLCGDGAGAAIVGSNPRKLIERPLFQLVSASQTIVPNSEGAIKGTLSEMGIIFNLVDKVPVLIGNNIENCLEEAFGSLGISNWNSLFWVAHPGGPAILNQIEEKLKLKEEKLKASRHVLSEYGNMSSACVFFILDEMRRRSKEEGKITTGDGLEWGVLFGFGPGLTVETIVLRSISTNEAH
levels of product (QA-TriR-FRX-C9) in N. benthamiana leaves, ChS pairs co-infiltrated (repeat experiment) [1]: In a repeat experiment, ChSB paired with ChSE also led to a noticeable increase of product | levels of product (QA-TriR-FRX-C9) in N. benthamiana leaves, ChS pairs co-infiltrated [2]: Pairing ChSE with ChSA, ChSC, CHSD or CHSF increased the levels of product made compared to either ChSE by itself or to the combination of all ChSs but ChSE | levels of product (QA-TriR-FRX-C9) in N. benthamiana leaves, ChS pairs co-infiltrated [3]: Pairing ChSE with ChSA, ChSC, CHSD or CHSF increased the levels of product made compared to either ChSE by itself or to the combination of all ChSs but ChSE | levels of product (QA-TriR-FRX-C9) in N. benthamiana leaves, ChS pairs co-infiltrated [4]: Pairing ChSE with ChSA, ChSC, CHSD or CHSF increased the levels of product made compared to either ChSE by itself or to the combination of all ChSs but ChSE | levels of QA-TriR-FRX-C9 in N. benthamiana leaves (drop-out of one of six co-infiltrated ChS candidates) (other ChS candidates): The levels of QA-TriR-FRX-C9 were not affected except when ChSE was absent | QA-TriR-FRX-C9 amounts in N. benthamiana leaves, triads of ChSs co-infiltrated [5]: the triads containing ChSD consistently had higher QA-TriR-FRX-C9 amounts than those without | levels of product (QA-TriR-FRX-C9) in N. benthamiana leaves, ChS pairs co-infiltrated [5]: Pairing ChSE with ChSA, ChSC, CHSD or CHSF increased the levels of product made compared to either ChSE by itself or to the combination of all ChSs but ChSE
